Assay results taken from patent US20210261648A1 (published 2021).

B1: IL6R-BP202/IL6R-L (antibody, human IgG1, kappa)
heavy: QVQLQESGPGLVKPSETLSLTCAVSGHSISHDHAWSWVRQPPGEGLEWIGFISYSGITNYNPSLQGRVTISRDNSKNTLYLQMNSLRAEDTAVYYCARSLARTTAMDYWGEGTLVTVSSASTKGPSVFPLAPSSKSTSGGTAALGCLVKDYFPEPVTVSWNSGALTSGVHTFPAVLQSSGLYSLSSVVTVPSSSLGTQTYICNVNHKPSNTKVDKKVEPKSCDKTHTCPPCPAPELLGDDSVFLFPPKPKDTLMISRTPEVTCVVVDVSHEDGEVKFNWYVDGVEVHNAKTKPREEQYNSTYRVVSVLTVLHQDWLNGKEYKCKVSNAALPRPIEKTISKAKGQPREPQVYTLPPSRDELTKNQVSLTCLVKGFYPSDIAVEWESNGQPENNYKTTPPVLDSDGSFFLYSKLTVDKSRWQQGNVFSCSVMHEALHNHYTQESLSLSP
light: not shown
B2: IL6R-BP210/IL6R-L (antibody, human IgG1, kappa)
heavy: QVQLQESGPGLVKPSETLSLTCAVSGHSISHDHAWSWVRQPPGEGLEWIGFISYSGITNYNPSLQGRVTISRDNSKNTLYLQMNSLRAEDTAVYYCARSLARTTAMDYWGEGTLVTVSSASTKGPSVFPLAPSSKSTSGGTAALGCLVKDYFPEPVTVSWNSGALTSGVHTFPAVLQSSGLYSLSSVVTVPSSSLGTQTYICNVNHKPSNTKVDKKVEPKSCDKTHTCPPCPAPELLGDDSVFLFPPKPKDTLMISRTPEVTCVVVDVSDEDGEVKFNWYVDGVEVHNAKTKPREEQYNSTYRVVSVLTVLHQDWLNGKEYKCKVSNKALPRPIEKTISKAKGQPREPQVYTLPPSRDELTKNQVSLTCLVKGFYPSDIAVEWESNGQPENNYKTTPPVLDSDGSFFLYSKLTVDKSRWQQGNVFSCSVMHEALHNHYTQESLSLSP
light: not shown
B3: IL6R-BP212/IL6R-L (antibody, human IgG1, kappa)
heavy: QVQLQESGPGLVKPSETLSLTCAVSGHSISHDHAWSWVRQPPGEGLEWIGFISYSGITNYNPSLQGRVTISRDNSKNTLYLQMNSLRAEDTAVYYCARSLARTTAMDYWGEGTLVTVSSASTKGPSVFPLAPSSKSTSGGTAALGCLVKDYFPEPVTVSWNSGALTSGVHTFPAVLQSSGLYSLSSVVTVPSSSLGTQTYICNVNHKPSNTKVDKKVEPKSCDKTHTCPPCPAPDLLGGDSVFLFPPKPKDTLMISRTPEVTCVVVDVSDEDGEVKFNWYVDGVEVHNAKTKPREEQDNSTYRVVSVLTVLHQDWLNGKEYKCKVSNKALPRPIEKTISKAKGQPREPQVYTLPPSRDELTKNQVSLTCLVKGFYPSDIAVEWESNGQPENNYKTTPPVLDSDGSFFLYSKLTVDKSRWQQGNVFSCSVMHEALHNHYTQESLSLSP
light: not shown
B4: IL6R-BP214/IL6R-L (antibody, human IgG1, kappa)
heavy: QVQLQESGPGLVKPSETLSLTCAVSGHSISHDHAWSWVRQPPGEGLEWIGFISYSGITNYNPSLQGRVTISRDNSKNTLYLQMNSLRAEDTAVYYCARSLARTTAMDYWGEGTLVTVSSASTKGPSVFPLAPSSKSTSGGTAALGCLVKDYFPEPVTVSWNSGALTSGVHTFPAVLQSSGLYSLSSVVTVPSSSLGTQTYICNVNHKPSNTKVDKKVEPKSCDKTHTCPPCPAPDYLGDDSVFLFPPKPKDTLMISRTPEVTCVVVDVSHEDPEVKFNWYVDGVEVHNAKTKPREEQDNSTYRVVSVLTVLHQDWLNGKEYKCKVSNDALPKPIEKTISKAKGQPREPQVYTLPPSRDELTKNQVSLTCLVKGFYPSDIAVEWESNGQPENNYKTTPPVLDSDGSFFLYSKLTVDKSRWQQGNVFSCSVMHEALHNHYTQESLSLSP
light: not shown
B5: IL6R-BP391/IL6R-L (antibody, human IgG1, kappa)
heavy: QVQLQESGPGLVKPSETLSLTCAVSGHSISHDHAWSWVRQPPGEGLEWIGFISYSGITNYNPSLQGRVTISRDNSKNTLYLQMNSLRAEDTAVYYCARSLARTTAMDYWGEGTLVTVSSASTKGPSVFPLAPSSKSTSGGTAALGCLVKDYFPEPVTVSWNSGALTSGVHTFPAVLQSSGLYSLSSVVTVPSSSLGTQTYICNVNHKPSNTKVDKKVEPKSCDKTHTCPPCPAPDLLGDDSVFLFPPKPKDTLMISRTPEVTCVVVDVSDEDGEVKFNWYVDGVEVHNAKTKPREEQDNSTYRVVSVLTVLHQDWLNGKEYKCKVSNKALPRPTEKTISKAKGQPREPQVYTLPPSRDELTKNQVSLTCLVKGFYPSDIAVEWESNGQPENNYKTTPPVLDSDGSFFLYSKLTVDKSRWQQGNVFSCSVMHEALHNHYTQESLSLSP
light: not shown
B6: IL6R-BP404/IL6R-L (antibody, human IgG1, kappa)
heavy: QVQLQESGPGLVKPSETLSLTCAVSGHSISHDHAWSWVRQPPGEGLEWIGFISYSGITNYNPSLQGRVTISRDNSKNTLYLQMNSLRAEDTAVYYCARSLARTTAMDYWGEGTLVTVSSASTKGPSVFPLAPSSKSTSGGTAALGCLVKDYFPEPVTVSWNSGALTSGVHTFPAVLQSSGLYSLSSVVTVPSSSLGTQTYICNVNHKPSNTKVDKKVEPKSCDKTHTCPPCPAPDYLGDDSVFLFPPKPKDTLMISRTPEVTCVVVDVSEEDGEVKFNWYVDGVEVHNAKTKPREEQDNSTYRVVSVLTVLHQDWLNGKEYKCKVSNKALPRPIEKTISKAKGQPREPQVYTLPPSRDELTKNQVSLTCLVKGFYPSDIAVEWESNGQPENNYKTTPPVLDSDGSFFLYSKLTVDKSRWQQGNVFSCSVMHEALHNHYTQESLSLSP
light: not shown
B7: IL6R-BP448/IL6R-L (antibody, human IgG1, kappa, name in EU numbering)
heavy: QVQLQESGPGLVKPSETLSLTCAVSGHSISHDHAWSWVRQPPGEGLEWIGFISYSGITNYNPSLQGRVTISRDNSKNTLYLQMNSLRAEDTAVYYCARSLARTTAMDYWGEGTLVTVSSASTKGPSVFPLAPSSKSTSGGTAALGCLVKDYFPEPVTVSWNSGALTSGVHTFPAVLQSSGLYSLSSVVTVPSSSLGTQTYICNVNHKPSNTKVDKKVEPKSCDKTHTCPPCPAPDLLGDDSVFLFPPKPKDTLMISRTPEVTCVVVDVAEEDGEVKFNWYVDGVEVHNAKTKPREEQYNSTYRVVSVLTVLHQDWLNGKEYKCKVSNKALPRPIEKTISKAKGQPREPQVYTLPPSRDELTKNQVSLTCLVKGFYPSDIAVEWESNGQPENNYKTTPDVLDSDGSFFLYSKLTVDKSRWQQGNVFSCSVMHEALHNHYTQESLSLSP
light: not shown
B8: IL6R-BP185/IL6R-L (antibody, human IgG1, kappa)
heavy: QVQLQESGPGLVKPSETLSLTCAVSGHSISHDHAWSWVRQPPGEGLEWIGFISYSGITNYNPSLQGRVTISRDNSKNTLYLQMNSLRAEDTAVYYCARSLARTTAMDYWGEGTLVTVSSASTKGPSVFPLAPSSKSTSGGTAALGCLVKDYFPEPVTVSWNSGALTSGVHTFPAVLQSSGLYSLSSVVTVPSSSLGTQTYICNVNHKPSNTKVDKKVEPKSCDKTHTCPPCPAPDYLGDDSVFLFPPKPKDTLMISRTPEVTCVVVDVSHEDGEVKFNWYVDGVEVHNAKTKPREEQYNSTYRVVSVLTVLHQDWLNGKEYKCKVSNAALPKPIEKTISKAKGQPREPQVYTLPPSRDELTKNQVSLTCLVKGFYPSDIAVEWESNGQPENNYKTTPPVLDSDGSFFLYSKLTVDKSRWQQGNVFSCSVMHEALHNHYTQESLSLSP
light: not shown

Legend:
[1] = target: T1, FcγRIa extracellular domain with C-terminal His tag (human, UniProt P12314 16-292); experiment: SPR, captured antibody, FcgR analyte
T1 construct: also called FcgRIa
T1 sequence (P12314 16-292): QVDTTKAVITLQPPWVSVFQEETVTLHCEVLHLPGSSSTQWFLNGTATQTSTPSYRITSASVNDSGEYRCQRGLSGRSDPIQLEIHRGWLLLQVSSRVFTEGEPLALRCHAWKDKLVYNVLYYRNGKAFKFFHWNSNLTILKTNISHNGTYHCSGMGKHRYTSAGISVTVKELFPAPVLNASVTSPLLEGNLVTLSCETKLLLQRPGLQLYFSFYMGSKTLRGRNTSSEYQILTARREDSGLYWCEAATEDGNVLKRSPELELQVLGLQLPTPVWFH
Protocol: (§1) Relative binding activities were calculated for the results of analyzing interactions with the respective FcγRs according to the following method.

[2] = target: T2, FcγRIIa type H extracellular domain with C-terminal His tag (human, UniProt P12318 34-217); experiment: SPR, captured antibody, FcgR analyte
T2 construct: extracellular domain; also called FcgRIIaH; FcγRIIa H
T2 sequence (looked up): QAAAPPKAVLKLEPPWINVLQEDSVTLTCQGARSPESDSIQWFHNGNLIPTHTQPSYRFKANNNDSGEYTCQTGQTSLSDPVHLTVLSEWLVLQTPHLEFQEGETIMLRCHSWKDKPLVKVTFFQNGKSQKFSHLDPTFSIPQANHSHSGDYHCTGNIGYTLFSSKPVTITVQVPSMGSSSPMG
Protocol: as §1

[3] = target: T3, FcγRIIb extracellular domain with C-terminal His tag (human, UniProt P31994 43-217); experiment: SPR, captured antibody, FcgR analyte
T3 construct: extracellular domain; also called FcgRIIb
T3 sequence (looked up): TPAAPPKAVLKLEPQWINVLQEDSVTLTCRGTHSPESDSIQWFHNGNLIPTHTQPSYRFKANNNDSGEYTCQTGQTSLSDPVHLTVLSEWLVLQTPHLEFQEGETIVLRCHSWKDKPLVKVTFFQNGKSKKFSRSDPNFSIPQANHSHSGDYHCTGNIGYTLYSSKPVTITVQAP
Protocol: as §1

[4] = target: T4, FcγRIIb extracellular domain with C-terminal His tag (human, UniProt P31994 43-217); experiment: SPR (Biacore)
T4 construct: extracellular domain; For crystals it was expressed with kifunensine and trimmed with Endo F1; also called FcgRIIb; FcγRIIb extracellular region
T4 sequence (looked up): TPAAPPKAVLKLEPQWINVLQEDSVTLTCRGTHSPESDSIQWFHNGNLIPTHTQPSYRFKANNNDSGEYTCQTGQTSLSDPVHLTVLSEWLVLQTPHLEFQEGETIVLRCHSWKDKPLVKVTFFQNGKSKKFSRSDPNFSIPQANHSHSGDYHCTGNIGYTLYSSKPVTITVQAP

Binder	relative binding activity [1]	relative binding activity [2]	relative binding activity [3]	binding result [4]	fold increase of binding against IL6R-BP264/IL6R-L [4] [fold]
B1	43 relative (IL6R-BF648/IL6R-L = 100)	285 relative (IL6R-BF648/IL6R-L = 100)	185 relative (IL6R-BF648/IL6R-L = 100)		
B2	57 relative (IL6R-BF648/IL6R-L = 100)	279 relative (IL6R-BF648/IL6R-L = 100)	187 relative (IL6R-BF648/IL6R-L = 100)		
B3	117 relative (IL6R-BF648/IL6R-L = 100)	135 relative (IL6R-BF648/IL6R-L = 100)	173 relative (IL6R-BF648/IL6R-L = 100)		
B4	36 relative (IL6R-BF648/IL6R-L = 100)	285 relative (IL6R-BF648/IL6R-L = 100)	174 relative (IL6R-BF648/IL6R-L = 100)		
B5				binds	
B6					1.1
B7				binds	
B8	47 relative (IL6R-BF648/IL6R-L = 100)	446 relative (IL6R-BF648/IL6R-L = 100)	179 relative (IL6R-BF648/IL6R-L = 100)		
